Reference: article doi:10.1101/2025.03.30.646161

Test system: P04156
Conditions: AUC

Substance: Recombinant huPrP (23-230) from E. coli
- percent of total signal as aggregates: about 71 % of total signal
- percent of total signal as large aggregates: 58.3 % of total signal
